Earlier results, collected in article PMC4316816.

Target: ANP (UniProt P01160)
UniProt P01160, sequence (P01160 124-151): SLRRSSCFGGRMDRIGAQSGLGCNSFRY

GC-A/NPRA (from UniProt P16066)
Kd: 24 nM
